Results as given in patent US20200140552A1 (Sanofi, published 2020).

T1: human CD3 (SPR antigen of Example 2) (human)
T1 chain: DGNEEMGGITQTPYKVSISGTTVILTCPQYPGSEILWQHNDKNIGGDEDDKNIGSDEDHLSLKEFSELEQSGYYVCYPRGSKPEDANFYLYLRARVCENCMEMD


Experiments:
[1] = target: T2, recombinant human CD38 (SPR antigen of Example 2) (human, UniProt P28907 43-300); experiment: SPR against recombinant protein; the cell gives two values for mid/low, the second taken as the CD3low construct
[2] = target: human CD28 (SPR antigen of Example 2) (human, UniProt P10747 19-152); experiment: SPR; KD rounded to integer; the cell gives two values for mid/low, the second taken as the CD3low construct
[3] = target: T2, recombinant human CD38 (SPR antigen of …); experiment: as above
[4] = target: T1, human CD3 (SPR antigen of Example 2); experiment: as above
hCD38-his (SEQ ID NO: 2) = target: T3, hCD38-his (SEQ ID NO: 2) (human, UniProt P28907 45-300); experiment: SPR (summary table; Table K value rounded)
T3 construct: also called human CD38-histag (ID2); soluble extracellular domain of humanCD38

[5] = target: T1, human CD3 (SPR antigen of Example 2); experiment: SPR; KD rounded to integer per the table's title
[6] = target: T2, recombinant human CD38 (SPR antigen of …); experiment: SPR
[7] = target: T2, recombinant human CD38 (SPR antigen of …); experiment: SPR; KD rounded to integer; the cell gives two values for mid/low, the first taken as the CD3mid construct
[8] = target: T1, human CD3 (SPR antigen of Example 2); experiment: as above
[9] = target: T2, recombinant human CD38 (SPR antigen of …); experiment: SPR against recombinant protein; the cell gives two values for mid/low, the first taken as the CD3mid construct
[10] = target: T4, human CD38 expressed on the surface of recombinant murine preB::300.19 cells (human, UniProt P28907 1-300); experiment: flow cytometry on hCD38-expressing murine preB::300.19 cells
T4 construct: whole, on cells; also called hCD38-expressing cells; cells expressing human CD38

| Binder | Kd [1] | Kd [2] | Kd [3] | Kd [4] | other results |
| --- | --- | --- | --- | --- | --- |
| CD38VH1xCD28cvnxCD3low trispecific binding protein (other, also called CD38VH1xCD28cvnxCD3mid/low) VH 1: QVQLQESGPGLVKPSQTLSLTCTVSGFSLSDYGVHWVRQPPGKGLEWLGVIWAGGGTNYNPSLKSRKTISKDTSKNQVSLKLSSVTAADTAVYYCARDKGYSYYYSMDYWGQGTTVTVS VL 1: DIVLTQSPASLAVSPGQRATITCRASESVEYYVTSLMQWYQQKPGQPPKLLIFAASNVESGVPARFSGSGSGTDFTLTINPVEANDVANYYCQQSRKVPYTFGQGTKLEIK VH 2: QVQLVESGGGVVQPGRSLRLSCAASGFTFTKAWMHWVRQAPGKGLEWVAQIKDKSNSYATYYADSVKGRFTISRDNSKNTLYLQMNSLRAEDTAVYYCRGVYYALSPFDYWGQGTLVTVSS VL 2: DIVMTQTPLSLSVTPGQPASISCKSSQSLVHNNGNTYLSWYLQKPGQSPQLLIYKVSNRFSGVPDRFSGSGSGTDFTLKISRVEAEDVGVYYCGQGTQYPFTFGGGTKVEIK VH 3: QVQLVQSGAEVVKPGASVKVSCKASGYTFTSYAMHWVKEAPGQRLEWIGYIYPGQGGTNYNQKFQGRATLTADTSASTAYMELSSLRSEDTAVYFCARTGGLRRAYFTYWGQGTLVTVSS VL 3: DIVLTQSPATLSLSPGERATISCRASQSVSSYGQGFMHWYQQKPGQPPRLLIYGASSRATGIPARFSGSGSGTDFTLTISPLEPEDFAVYYCQQNKEDPWTFGGGTKLEIK | 6 nM | 34 nM | 6 nM | 59 nM | – |
| antiCD38_C2-CD38-1_VH3-VL3 (antibody, human IgG1, kappa, V domains shown) VH: QVQLVQSGAEVVKPGASVKVSCKASGYTFTSFNMHWVKEAPGQRLEWIGYIYPGNGGTNYNQKFQGRATLTADTSASTAYMELSSLRSEDTAVYFCARTGGLRRAYFTYWGQGTLVTVSS VL: DIVLTQSPATLSLSPGERATISCRASESVDSYGNGFMHWYQQKPGQPPRLLIYLASSRATGIPARFSGSGSGTDFTLTISPLEPEDFAVYYCQQNKEDPWTFGGGTKLEIKR | – | – | – | – | Kd (hCD38-his (SEQ ID NO: 2)): 0.48 nM |
| CD38VH1xCD28supxCD3low trispecific binding protein (other, also called CD38VH1xCD28supxCD3mid/low) VH 1: QVQLVQSGAEVVKPGASVKVSCKASGYTFTSYYIHWVRQAPGQGLEWIGSIYPGNVNTNYAQKFQGRATLTVDTSISTAYMELSRLRSDDTAVYYCTRSHYGLDWNFDVWGKGTTVTVSS VL 1: DIQMTQSPSSLSASVGDRVTITCQASQNIYVWLNWYQQKPGKAPKLLIYKASNLHTGVPSRFSGSGSGTDFTLTISSLQPEDIATYYCQQGQTYPYTFGQGTKLEIK VH 2: QVQLVESGGGVVQPGRSLRLSCAASGFTFTKAWMHWVRQAPGKGLEWVAQIKDKSNSYATYYADSVKGRFTISRDNSKNTLYLQMNSLRAEDTAVYYCRGVYYALSPFDYWGQGTLVTVSS VL 2: DIVMTQTPLSLSVTPGQPASISCKSSQSLVHNNGNTYLSWYLQKPGQSPQLLIYKVSNRFSGVPDRFSGSGSGTDFTLKISRVEAEDVGVYYCGQGTQYPFTFGGGTKVEIK VH 3: QVQLVQSGAEVVKPGASVKVSCKASGYTFTSYAMHWVKEAPGQRLEWIGYIYPGQGGTNYNQKFQGRATLTADTSASTAYMELSSLRSEDTAVYFCARTGGLRRAYFTYWGQGTLVTVSS VL 3: DIVLTQSPATLSLSPGERATISCRASQSVSSYGQGFMHWYQQKPGQPPRLLIYGASSRATGIPARFSGSGSGTDFTLTISPLEPEDFAVYYCQQNKEDPWTFGGGTKLEIK | 6 nM | 4 nM | 6 nM | 76 nM | – |
| CD38HHY1370xCD28supxCD3mid trispecific binding protein (other) light 1: DIVMTQTPLSLSVTPGQPASISCKSSQSLVHNNANTYLSWYLQKPGQSPQSLIYKVSNRFSGVPDRFSGSGSGTDFTLKISRVEAEDVGVYYCGQGTQYPFTFGSGTKVEIKGQPKAAPDIQMTQSPSSLSASVGDRVTITCQASQNIYVWLNWYQQKPGKAPKLLIYKASNLHTGVPSRFSGSGSGTDFTLTISSLQPEDIATYYCQQGQTYPYTFGQGTKLEIKTKGPSRTVAAPSVFIFPPSDEQLKSGTASVVCLLNNFYPREAKVQWKVDNALQSGNSQESVTEQDSKDSTYSLSSTLTLSKADYEKHKVYACEVTHQGLSSPVTKSFNRGEC heavy 1: QVQLVQSGAEVVKPGASVKVSCKASGYTFTSYYIHWVRQAPGQGLEWIGSIYPGNVNTNYAQKFQGRATLTVDTSISTAYMELSRLRSDDTAVYYCTRSHYGLDWNFDVWGKGTTVTVSSSQVQLVESGGGVVQPGRSLRLSCAASGFTFTKAWMHWVRQAPGKQLEWVAQIKDKSNSYATYYADSVKGRFTISRDDSKNTLYLQMNSLRAEDTAVYYCRGVYYALSPFDYWGQGTLVTVSSRTASTKGPSVFPLAPCSRSTSESTAALGCLVKDYFPEPVTVSWNSGALTSGVHTFPAVLQSSGLYSLSSVVTVPSSSLGTKTYTCNVDHKPSNTKVDKRVESKYGPPCPPCPAPEAAGGPSVFLFPPKPKDTLMISRTPEVTCVVVDVSQEDPEVQFNWYVDGVEVHNAKTKPREEQFNSTYRVVSVLTVLHQDWLNGKEYKCKVSNKGLPSSIEKTISKAKGQPREPQVCTLPPSQEEMTKNQVSLSCAVKGFYPSDIAVEWESNGQPENNYKTTPPVLDSDGSFFLVSKLTVDKSRWQEGNVFSCSVMHEALHNHYTQKSLSLSLG heavy 2: QVQLVESGGGVVQPGRSLRLSCAASGFTFSSYGMHWVRQAPGKGLEWVAVIWYDGSNKYYADSVKGRFTISGDNSKNTLYLQMNSLRAEDTAVYYCARMFRGAFDYWGQGTLVTVSSASTKGPSVFPLAPCSRSTSESTAALGCLVKDYFPEPVTVSWNSGALTSGVHTFPAVLQSSGLYSLSSVVTVPSSSLGTKTYTCNVDHKPSNTKVDKRVESKYGPPCPPCPAPEAAGGPSVFLFPPKPKDTLMISRTPEVTCVVVDVSQEDPEVQFNWYVDGVEVHNAKTKPREEQFNSTYRVVSVLTVLHQDWLNGKEYKCKVSNKGLPSSIEKTISKAKGQPREPQVYTLPPCQEEMTKNQVSLWCLVKGFYPSDIAVEWESNGQPENNYKTTPPVLDSDGSFFLYSKLTVDKSRWQEGNVFSCSVMHEALHNHYTQKSLSLSLG light 2: AIQMTQSPSSLSASVGDRVTITCRASQGIRNDLGWYQQKPGKAPKLLIYAASSLQSGVPSRFSGSGSGTDFTLTISGLQPEDSATYYCLQDYIYYPTFGQGTKVEIKRTVAAPSVFIFPPSDEQLKSGTASVVCLLNNFYPREAKVQWKVDNALQSGNSQESVTEQDSKDSTYSLSSTLTLSKADYEKHKVYACEVTHQGLSSPVTKSFNRGEC | – | – | – | – | Kd [5]: 48 nM; Kd [6]: 1 nM |
| CD38VH1xCD28supxCD3mid trispecific binding protein (other, also called antiCD38_C2-CD38-1_VH1-VL1xCD28supxCD3mid) light 1: DIVMTQTPLSLSVTPGQPASISCKSSQSLVHNNANTYLSWYLQKPGQSPQSLIYKVSNRFSGVPDRFSGSGSGTDFTLKISRVEAEDVGVYYCGQGTQYPFTFGSGTKVEIKGQPKAAPDIQMTQSPSSLSASVGDRVTITCQASQNIYVWLNWYQQKPGKAPKLLIYKASNLHTGVPSRFSGSGSGTDFTLTISSLQPEDIATYYCQQGQTYPYTFGQGTKLEIKTKGPSRTVAAPSVFIFPPSDEQLKSGTASVVCLLNNFYPREAKVQWKVDNALQSGNSQESVTEQDSKDSTYSLSSTLTLSKADYEKHKVYACEVTHQGLSSPVTKSFNRGEC heavy 1: QVQLVQSGAEVVKPGASVKVSCKASGYTFTSYYIHWVRQAPGQGLEWIGSIYPGNVNTNYAQKFQGRATLTVDTSISTAYMELSRLRSDDTAVYYCTRSHYGLDWNFDVWGKGTTVTVSSSQVQLVESGGGVVQPGRSLRLSCAASGFTFTKAWMHWVRQAPGKQLEWVAQIKDKSNSYATYYADSVKGRFTISRDDSKNTLYLQMNSLRAEDTAVYYCRGVYYALSPFDYWGQGTLVTVSSRTASTKGPSVFPLAPCSRSTSESTAALGCLVKDYFPEPVTVSWNSGALTSGVHTFPAVLQSSGLYSLSSVVTVPSSSLGTKTYTCNVDHKPSNTKVDKRVESKYGPPCPPCPAPEAAGGPSVFLFPPKPKDTLMISRTPEVTCVVVDVSQEDPEVQFNWYVDGVEVHNAKTKPREEQFNSTYRVVSVLTVLHQDWLNGKEYKCKVSNKGLPSSIEKTISKAKGQPREPQVCTLPPSQEEMTKNQVSLSCAVKGFYPSDIAVEWESNGQPENNYKTTPPVLDSDGSFFLVSKLTVDKSRWQEGNVFSCSVMHEALHNHYTQKSLSLSLG heavy 2: QVQLVQSGAEVVKPGASVKVSCKASGYTFTSYAMHWVKEAPGQRLEWIGYIYPGQGGTNYNQKFQGRATLTADTSASTAYMELSSLRSEDTAVYFCARTGGLRRAYFTYWGQGTLVTVSSASTKGPSVFPLAPCSRSTSESTAALGCLVKDYFPEPVTVSWNSGALTSGVHTFPAVLQSSGLYSLSSVVTVPSSSLGTKTYTCNVDHKPSNTKVDKRVESKYGPPCPPCPAPEAAGGPSVFLFPPKPKDTLMISRTPEVTCVVVDVSQEDPEVQFNWYVDGVEVHNAKTKPREEQFNSTYRVVSVLTVLHQDWLNGKEYKCKVSNKGLPSSIEKTISKAKGQPREPQVYTLPPCQEEMTKNQVSLWCLVKGFYPSDIAVEWESNGQPENNYKTTPPVLDSDGSFFLYSKLTVDKSRWQEGNVFSCSVMHEALHNHYTQKSLSLSLG light 2: DIVLTQSPATLSLSPGERATISCRASQSVSSYGQGFMHWYQQKPGQPPRLLIYGASSRATGIPARFSGSGSGTDFTLTISPLEPEDFAVYYCQQNKEDPWTFGGGTKLEIKRTVAAPSVFIFPPSDEQLKSGTASVVCLLNNFYPREAKVQWKVDNALQSGNSQESVTEQDSKDSTYSLSSTLTLSKADYEKHKVYACEVTHQGLSSPVTKSFNRGEC | – | – | – | – | Kd [7]: 4 nM; Kd [8]: 21 nM; Kd [9]: 4 nM; EC50 [10]: 11 nM |
